Measurements published in patent US20180155451A1 (published 2018).

T1: FcγRIIa R (human FcγRIIa, allotype R, Arg at position 131), extracellular domain with C-terminal His tag (human, UniProt P12318 34-217)
T1 construct: extracellular domain; expressed in FreeStyle293 cells; analyte in Biacore; also called 2aR; FcgRIIa R
T1 sequence (looked up): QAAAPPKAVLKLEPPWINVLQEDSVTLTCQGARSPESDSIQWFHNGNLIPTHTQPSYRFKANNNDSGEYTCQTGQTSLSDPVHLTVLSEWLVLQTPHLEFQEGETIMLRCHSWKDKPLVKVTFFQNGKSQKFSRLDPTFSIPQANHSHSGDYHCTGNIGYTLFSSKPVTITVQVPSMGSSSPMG

T2: FcγRIIb extracellular domain with C-terminal His tag (human, UniProt P31994 43-217)
T2 construct: extracellular domain; Soluble receptor expressed in FreeStyle293 cells, used as analyte in Biacore; also called FcgRIIb; 2b; not shown: His tag attached to the C terminus
T2 sequence (looked up): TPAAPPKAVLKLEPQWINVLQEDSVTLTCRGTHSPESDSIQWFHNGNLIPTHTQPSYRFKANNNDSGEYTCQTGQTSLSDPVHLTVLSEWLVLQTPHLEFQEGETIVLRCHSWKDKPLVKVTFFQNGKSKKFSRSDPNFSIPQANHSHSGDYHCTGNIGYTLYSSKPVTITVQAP

B1: GpH7-A5/GpH7-B3 variant S298_06M/GpL16-k0 (antibody, human IgG1, kappa)
heavy 1: not shown
heavy 2: not shown
light: DIVMTQSPLSLPVTPGEPASISCQASESLVHSNRNTYLHWYLQKPGQSPQLLIYKVSNRFSGVPDRFSGSGSGTDFTLKISRVEAEDVGVYYCSQNTHVPPTFGQGTKVEIERTVAAPSVFIFPPSDEQLKSGTASVVCLLNNFYPREAKVQWKVDNALQSGNSQESVTEQDSKDSTYSLSSTLTLSKADYEKHKVYACEVTHQGLSSPVTKSFNRGEC
notes: heterodimerized antibody, mutation in one H chain only; also called He Ab
B2: GpH7-A5/GpH7-B3 variant S298_08L/GpL16-k0 (antibody, human IgG1, kappa)
heavy 1: not shown
heavy 2: not shown
light: B1 light
notes: as for B1
B3: GpH7-A5/GpH7-B3 variant S324_06M/GpL16-k0 (antibody, human IgG1, kappa)
heavy 1: not shown
heavy 2: not shown
light: B1 light
notes: as for B1
B4: GpH7-A5/GpH7-B3 variant S324_04F/GpL16-k0 (antibody, human IgG1, kappa)
heavy 1: not shown
heavy 2: not shown
light: B1 light
notes: as for B1
B5: GpH7-A5/GpH7-B3 variant I336_02A/GpL16-k0 (heterodimerized antibody, He Ab) (antibody, human IgG1, kappa)
heavy 1: not shown
heavy 2: not shown
light: B1 light
notes: Anti-glypican-3 IgG1 heterodimerized antibody; the alteration stands only in the GpH7-B3 chain; Positions in EU numbering; also called I336A
B6: GpH7-A5/GpH7-B3 variant I336_13S/GpL16-k0 (heterodimerized antibody, He Ab) (antibody, human IgG1, kappa)
heavy 1: not shown
heavy 2: not shown
light: B1 light
notes: Anti-glypican-3 IgG1 heterodimerized antibody; the alteration stands only in the GpH7-B3 chain; Positions in EU numbering; also called I336S
B7: GpH7-A5/GpH7-B3 variant K334_19Q/GpL16-k0 (heterodimerized antibody, He Ab) (antibody, human IgG1, kappa)
heavy 1: not shown
heavy 2: not shown
light: B1 light
notes: Anti-glypican-3 IgG1 heterodimerized antibody; the alteration stands only in the GpH7-B3 chain; Positions in EU numbering; also called K334Q
B8: GpH7-A5/GpH7-B3 variant I336_03V/GpL16-k0 (heterodimerized antibody, He Ab) (antibody, human IgG1, kappa)
heavy 1: not shown
heavy 2: not shown
light: B1 light
notes: Anti-glypican-3 IgG1 heterodimerized antibody; the alteration stands only in the GpH7-B3 chain; Positions in EU numbering; also called I336V
B9: GpH7-A5/GpH7-B3 variant I336_15Y/GpL16-k0 (heterodimerized antibody, He Ab) (antibody, human IgG1, kappa)
heavy 1: not shown
heavy 2: not shown
light: B1 light
notes: Anti-glypican-3 IgG1 heterodimerized antibody; the alteration stands only in the GpH7-B3 chain; Positions in EU numbering; also called I336Y
B10: GpH7-A5/GpH7-B3 variant I336_19Q/GpL16-k0 (heterodimerized antibody, He Ab) (antibody, human IgG1, kappa)
heavy 1: not shown
heavy 2: not shown
light: B1 light
notes: Anti-glypican-3 IgG1 heterodimerized antibody; the alteration stands only in the GpH7-B3 chain; Positions in EU numbering; also called I336Q
B11: GpH7-A5/GpH7-B3 variant I336_10E/GpL16-k0 (heterodimerized antibody, He Ab) (antibody, human IgG1, kappa)
heavy 1: not shown
heavy 2: not shown
light: B1 light
notes: Anti-glypican-3 IgG1 heterodimerized antibody; the alteration stands only in the GpH7-B3 chain; Positions in EU numbering; also called I336E
B12: GpH7-A5/GpH7-B3 variant K334_10E/GpL16-k0 (heterodimerized antibody, He Ab) (antibody, human IgG1, kappa)
heavy 1: not shown
heavy 2: not shown
light: B1 light
notes: Anti-glypican-3 IgG1 heterodimerized antibody; the alteration stands only in the GpH7-B3 chain (K439E); GpH7-A5 carries D356K/H435R; Positions in EU numbering; also called K334E
B13: GpH7-A5/GpH7-B3 variant K334_15Y/GpL16-k0 (heterodimerized antibody, He Ab) (antibody, human IgG1, kappa)
heavy 1: not shown
heavy 2: not shown
light: B1 light
notes: Anti-glypican-3 IgG1 heterodimerized antibody; the alteration stands only in the GpH7-B3 chain; Positions in EU numbering; also called K334Y
B14: GpH7-A5/GpH7-B3 variant I336_14T/GpL16-k0 (heterodimerized antibody, He Ab) (antibody, human IgG1, kappa)
heavy 1: not shown
heavy 2: not shown
light: B1 light
notes: Anti-glypican-3 IgG1 heterodimerized antibody; the alteration stands only in the GpH7-B3 chain; Positions in EU numbering; also called I336T
B15: GpH7-A5/GpH7-B3 variant K334_14T/GpL16-k0 (heterodimerized antibody, He Ab) (antibody, human IgG1, kappa)
heavy 1: not shown
heavy 2: not shown
light: B1 light
notes: Anti-glypican-3 IgG1 heterodimerized antibody; the alteration stands only in the GpH7-B3 chain; Positions in EU numbering; also called K334T

Target: T1, FcγRIIa R (human FcγRIIa, allotype R, …)
Assay: SPR (Biacore), relative binding vs GpH7-A5/GpH7-B3/GpL16-k0

Binder	He/Con_2aR
B1	108 relative, control = 100
B2	105 relative, control = 100
B3	123 relative, control = 100
B4	104 relative, control = 100

Target: T2, FcγRIIb extracellular domain with …
Assay: SPR (Biacore), antibody captured via antigen peptide, FcγR as analyte; binding amount relative to control heterodimerized antibody
Procedure: (§1) The heterodimerized antibodies He Abs in which one of the H chains was introduced with an alteration were assayed for their binding activities to each activating FcγR and inhibitory FcγR according to the method described in Example 4. […] The activating FcγRs in FIGS. 26, 27, 28, and 29 are FcγRIa, FcγRIIa (R), FcγRIIa (H), and FcγRIIIa, respectively.
(§2) Analysis of interaction between objective antibody and the FcγR was carried out using Biacore T100 (GE Healthcare). HBS-EP+ (GE Healthcare) was used as the running buffer, and the measurement temperature was set to 25° C. Chips produced by immobilizing the antigen peptide by the amine coupling method to a Series S Sencor Chip CM5 (GE Healthcare), or alternatively, chips produced by allowing preliminarily biotinylated antigen peptides to interact with and immobilize onto a Series S Sensor Chip SA (certified) (GE Healthcare) were used. Antibodies of interest were captured onto an antigen peptide-immobilized chip, and allowed to interact to each FcγR diluted with running buffer. To regenerate and repeatedly use the chip, the antibodies captured on the chip were washed off by reacting 10 mM glycine-HCl, pH 1.5.

Binder	He/Con_2b (IIb binding)
B5	84.9 relative binding, GpH7-A5/GpH7-B3/GpL16-k0 = 100
B6	83.7 relative binding, GpH7-A5/GpH7-B3/GpL16-k0 = 100
B7	109 relative binding, GpH7-A5/GpH7-B3/GpL16-k0 = 100
B8	90.3 relative binding, GpH7-A5/GpH7-B3/GpL16-k0 = 100
B9	68.2 relative binding, GpH7-A5/GpH7-B3/GpL16-k0 = 100
B10	58.2 relative binding, GpH7-A5/GpH7-B3/GpL16-k0 = 100
B11	89.8 relative binding, GpH7-A5/GpH7-B3/GpL16-k0 = 100
B12	114 relative binding, GpH7-A5/GpH7-B3/GpL16-k0 = 100
B13	109 relative binding, GpH7-A5/GpH7-B3/GpL16-k0 = 100
B14	89.5 relative binding, GpH7-A5/GpH7-B3/GpL16-k0 = 100
B15	115 relative binding, GpH7-A5/GpH7-B3/GpL16-k0 = 100

Target: T3, FcγRIIIa extracellular domain with C-terminal His tag (human, UniProt P08637 17-208)
T3 construct: extracellular domain; Soluble receptor expressed in FreeStyle293 cells, used as analyte in Biacore; also called FcgRIIIa; 3a; not shown: His tag attached to the C terminus
Assay: as above
Procedure: as §1, §2

T3 sequence (P08637 17-208): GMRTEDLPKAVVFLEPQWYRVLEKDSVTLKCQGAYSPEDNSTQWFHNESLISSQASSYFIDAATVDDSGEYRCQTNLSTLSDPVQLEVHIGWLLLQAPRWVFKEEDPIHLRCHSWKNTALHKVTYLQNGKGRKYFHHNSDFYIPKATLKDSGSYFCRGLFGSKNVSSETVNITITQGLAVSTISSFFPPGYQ

Binder	He/Con_3a (IIIa binding)
B5	111 relative binding, GpH7-A5/GpH7-B3/GpL16-k0 = 100
B6	102 relative binding, GpH7-A5/GpH7-B3/GpL16-k0 = 100
B7	136 relative binding, GpH7-A5/GpH7-B3/GpL16-k0 = 100
B8	112 relative binding, GpH7-A5/GpH7-B3/GpL16-k0 = 100
B9	87.3 relative binding, GpH7-A5/GpH7-B3/GpL16-k0 = 100
B10	92.5 relative binding, GpH7-A5/GpH7-B3/GpL16-k0 = 100
B11	119 relative binding, GpH7-A5/GpH7-B3/GpL16-k0 = 100
B12	181 relative binding, GpH7-A5/GpH7-B3/GpL16-k0 = 100
B13	141 relative binding, GpH7-A5/GpH7-B3/GpL16-k0 = 100
B14	108 relative binding, GpH7-A5/GpH7-B3/GpL16-k0 = 100
B15	141 relative binding, GpH7-A5/GpH7-B3/GpL16-k0 = 100

Target: T3, FcγRIIIa extracellular domain with …
Assay: SPR (Biacore); ratio of He/Con_3a (FcγRIIIa) to He/Con_2b (FcγRIIb)
Procedure, shortened: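 Measurements were made at 25 °C with HBS-EP+ as running buffer. Each antibody sat on a chip bearing its antigen peptide, amine-coupled or streptavidin-bound, while FcγR was passed over; 10 mM glycine-HCl, pH 1.5 removed captured antibody.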

Binder	IIIa/IIb (He_3a/2b) [ratio]
B5	1.31
B6	1.21
B7	1.25
B8	1.24
B9	1.28
B10	1.59
B11	1.33
B12	1.58
B13	1.29
B14	1.21
B15	1.23
